In patent US11260101 (JINAN UNIVERSITY, dated 2022):

Target: T1, fibroblast growth factor receptor 2 (FGFR2)
T1 construct: also called membrane receptor FGFR2
Test: isothermal titration calorimetry (ITC)
Source text: 1. Detection of the Affinity Between the Repair Peptide R1 and FGFR2 by Using the ITC Method The affinity was detected by an isothermal totration calorimetry (ITC), and the detection result was shown in FIG. 1. […] (The K denoted the affinity constant, and the Kd denoted the dissociation constant. The larger the K was and the smaller the Kd was, the stronger the affinity was).

T1 sequence (P21802 22-821): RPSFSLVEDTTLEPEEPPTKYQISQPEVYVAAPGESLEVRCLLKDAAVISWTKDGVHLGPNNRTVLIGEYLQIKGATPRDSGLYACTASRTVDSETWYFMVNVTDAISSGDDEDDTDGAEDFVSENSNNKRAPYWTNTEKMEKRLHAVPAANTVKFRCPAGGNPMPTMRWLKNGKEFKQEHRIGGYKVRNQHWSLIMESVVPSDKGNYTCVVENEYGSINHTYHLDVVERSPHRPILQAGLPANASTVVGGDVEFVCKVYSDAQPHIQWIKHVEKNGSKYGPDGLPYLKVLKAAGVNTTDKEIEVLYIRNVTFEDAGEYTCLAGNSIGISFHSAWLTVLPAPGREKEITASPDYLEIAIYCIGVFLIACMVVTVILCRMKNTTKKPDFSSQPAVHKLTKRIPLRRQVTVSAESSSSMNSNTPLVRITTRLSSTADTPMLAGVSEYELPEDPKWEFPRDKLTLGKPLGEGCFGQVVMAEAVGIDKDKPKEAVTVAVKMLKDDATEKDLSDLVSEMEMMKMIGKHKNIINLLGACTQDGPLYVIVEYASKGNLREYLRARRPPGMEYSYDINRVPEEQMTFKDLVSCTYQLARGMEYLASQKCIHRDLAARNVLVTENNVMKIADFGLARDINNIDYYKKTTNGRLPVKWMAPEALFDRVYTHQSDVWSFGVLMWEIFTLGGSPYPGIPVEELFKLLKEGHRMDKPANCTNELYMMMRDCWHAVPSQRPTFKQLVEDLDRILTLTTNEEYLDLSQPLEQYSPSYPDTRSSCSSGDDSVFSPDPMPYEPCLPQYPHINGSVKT

Ka: 7.35e+08 M⁻¹ | Kd: ~1.37 nM
B1: repair peptide R1 (peptide)
peptide: GPANVET
notes: Linear 7-residue peptide made by chemical synthesis; also called R1 peptide; GPANVET
